Biological target: T1, His-PhoP (Salmonella enterica serovar Typhimurium (strain SL1344?)) (UniProt E1WFA1)
T1 sequence: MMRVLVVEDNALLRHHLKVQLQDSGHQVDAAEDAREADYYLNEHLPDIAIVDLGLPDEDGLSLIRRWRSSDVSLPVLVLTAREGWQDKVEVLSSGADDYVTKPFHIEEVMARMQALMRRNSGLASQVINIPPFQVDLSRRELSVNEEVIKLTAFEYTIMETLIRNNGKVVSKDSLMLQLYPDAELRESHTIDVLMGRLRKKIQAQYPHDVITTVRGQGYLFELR
Assay: EMSA
Conditions: 20 mM HEPES pH 7.6, 1 mM EDTA, 10 mM (NH4)2SO4, 5 mM DTT, 0.2% Tween 20, 30 mM KCl, 0.1 ug poly-L-lysine, 1 ug poly(dI-dC), 50 mM acetyl phosphate, 37 C …

CGCTCACCTCTTCTGTATATAAGCTGTGAAATTGCGGTATGCTCAATCGGTAAAGTGAATTTACACATATATTCATTTTGCTCTGTTTCCTGGTAAGTGAAAGTAGCGAATATGATGTAATGTATAATT (double strand) [sseL promoter 128-bp fragment]
binding: binds
